# Assay results taken from patent US20240270846A1 (published 2024).
# Changes are numbered by the printed parent chain. Names and notes keep the numbering of the source.
# B1: GLS3000 S27eD one-arm antibody (H chain CE115HA000) (antibody, human IgG1, kappa, L234A L235A, N297A, name in Kabat numbering)
# heavy: QVQLVESGGGVVQPGRSLRLSCAASGFTFSNAWMHWVRQAPGKGLEWVAQIKAKSNNYATYYAESVKGRFTISRDDSKNSLYLQMNSLKTEDTAVYYCRYVHYGAYYGVDAWGQGTTVTVSSASTKGPSVFPLAPSSKSTSGGTAALGCLVKDYFPEPVTVSWNSGALTSGVHTFPAVLQSSGLYSLSSVVTVPSSSLGTQTYICNVNHKPSNTKVDKKVEPKSCDKTHTCPPCPAPEAAGGPSVFLFPPKPKDTLMISRTPEVTCVVVDVSHEDPEVKFNWYVDGVEVHNAKTKPREEQYASTYRVVSVLTVLHQDWLNGKEYKCKVSNKALPAPIEKTISKAKGQPREPQVYTLPPSRCELTKNQVSLSCAVKGFYPSDIAVEWESNGQPENNYKTTPPVLDSDGSFFLVSKLTVDKSRWQQGNVFSCSVMHEALHNHYTQKSLSLSPDYKDDDDK
# chain: EPKSSDKTHTCPPCPAPELLGGPSVFLFPPKPKDTLMISRTPEVTCVVVDVSHEDPEVKFNWYVDGVEVHNAKTKPREEQYNSTYRVVSVLTVLHQDWLNGKEYKCKVSNKALPAPIEKTISKAKGQPREPQVCTLPPSRDELTKNQVSLWCLVKGFYPSDIAVEWESNGQPENNYKTTPPVLDSDGSFFLYSKLTVDKSRWQQGNVFSCSVMHEALHNRYTQKSLSLSP
# light: DIVMTQSPLSLPVTPGEPASISCRSSQSLVHDNRNTYLHWYQQKPGQAPRLLIYKVSNRFSGVPDRFSGSGSGTDFTLKISRVEAEDVGVYYCGQGTQVPYTFGQGTKLEIKRTVAAPSVFIFPPSDEQLKSGTASVVCLLNNFYPREAKVQWKVDNALQSGNSQESVTEQDSKDSTYSLSSTLTLSKADYEKHKVYACEVTHQGLSSPVTKSFNRGEC
# notes: one-arm antibody
# B2: GLS3000 S27eT one-arm antibody (H chain CE115HA000) (antibody, human IgG1, kappa, L234A L235A, N297A, name in Kabat numbering)
# heavy: B1 heavy
# chain: B1 chain
# light: B1 light with D32T
# notes: one-arm antibody
# B3: GLS3000 S27eL one-arm antibody (H chain CE115HA000) (antibody, human IgG1, kappa, L234A L235A, N297A, name in Kabat numbering)
# heavy: B1 heavy
# chain: B1 chain
# light: B1 light with D32L
# notes: one-arm antibody
# B4: GLS3000 V27cD one-arm antibody (H chain CE115HA000) (antibody, human IgG1, kappa, L234A L235A, N297A, name in Kabat numbering)
# heavy: B1 heavy
# chain: B1 chain
# light: B1 light with V30D, D32S
# notes: one-arm antibody
# B5: GLS3000 S27eQ one-arm antibody (H chain CE115HA000) (antibody, human IgG1, kappa, L234A L235A, N297A, name in Kabat numbering)
# heavy: B1 heavy
# chain: B1 chain
# light: B1 light with D32Q
# notes: one-arm antibody
# B6: GLS3000 V27cS one-arm antibody (H chain CE115HA000) (antibody, human IgG1, kappa, L234A L235A, N297A, name in Kabat numbering)
# heavy: B1 heavy
# chain: B1 chain
# light: B1 light with V30S, D32S
# notes: one-arm antibody
# B7: GLS3000 V27cY one-arm antibody (H chain CE115HA000) (antibody, human IgG1, kappa, L234A L235A, N297A, name in Kabat numbering)
# heavy: B1 heavy
# chain: B1 chain
# light: B1 light with V30Y, D32S
# notes: one-arm antibody
# B8: GLS3000 S27eG one-arm antibody (H chain CE115HA000) (antibody, human IgG1, kappa, L234A L235A, N297A, name in Kabat numbering)
# heavy: B1 heavy
# chain: B1 chain
# light: B1 light with D32G
# notes: one-arm antibody
# B9: GLS3000 S52D one-arm antibody (H chain CE115HA000) (antibody, human IgG1, kappa, L234A L235A, N297A, name in Kabat numbering)
# heavy: B1 heavy
# chain: B1 chain
# light: B1 light with D32S, S57D
# notes: one-arm antibody
# B10: GLS3000 V27cP one-arm antibody (H chain CE115HA000) (antibody, human IgG1, kappa, L234A L235A, N297A, name in Kabat numbering)
# heavy: B1 heavy
# chain: B1 chain
# light: B1 light with V30P, D32S
# notes: one-arm antibody
# B11: GLS3000 S27eW one-arm antibody (H chain CE115HA000) (antibody, human IgG1, kappa, L234A L235A, N297A, name in Kabat numbering)
# heavy: B1 heavy
# chain: B1 chain
# light: B1 light with D32W
# notes: one-arm antibody
# B12: GLS3000 T31D one-arm antibody (H chain CE115HA000) (antibody, human IgG1, kappa, L234A L235A, N297A, name in Kabat numbering)
# heavy: B1 heavy
# chain: B1 chain
# light: B1 light with D32S, T36D
# notes: one-arm antibody
# B13: GLS3000 S56D one-arm antibody (H chain CE115HA000) (antibody, human IgG1, kappa, L234A L235A, N297A, name in Kabat numbering)
# heavy: B1 heavy
# chain: B1 chain
# light: B1 light with D32S, S61D
# notes: one-arm antibody
# B14: GLS3000 Y32A one-arm antibody (H chain CE115HA000) (antibody, human IgG1, kappa, L234A L235A, N297A, name in Kabat numbering)
# heavy: B1 heavy
# chain: B1 chain
# light: B1 light with D32S, Y37A
# notes: one-arm antibody
# B15: GLS3000 S27eI one-arm antibody (H chain CE115HA000) (antibody, human IgG1, kappa, L234A L235A, N297A, name in Kabat numbering)
# heavy: B1 heavy
# chain: B1 chain
# light: B1 light with D32I
# notes: one-arm antibody
# B16: GLS3000 S27eF one-arm antibody (H chain CE115HA000) (antibody, human IgG1, kappa, L234A L235A, N297A, name in Kabat numbering)
# heavy: B1 heavy
# chain: B1 chain
# light: B1 light with D32F
# notes: one-arm antibody
# B17: GLS3000 S27eM one-arm antibody (H chain CE115HA000) (antibody, human IgG1, kappa, L234A L235A, N297A, name in Kabat numbering)
# heavy: B1 heavy
# chain: B1 chain
# light: B1 light with D32M
# notes: one-arm antibody
# B18: GLS3000 S27eE one-arm antibody (H chain CE115HA000) (antibody, human IgG1, kappa, L234A L235A, N297A, name in Kabat numbering)
# heavy: B1 heavy
# chain: B1 chain
# light: B1 light with D32E
# notes: one-arm antibody
# B19: GLS3000 S27eN one-arm antibody (H chain CE115HA000) (antibody, human IgG1, kappa, L234A L235A, N297A, name in Kabat numbering)
# heavy: B1 heavy
# chain: B1 chain
# light: B1 light with D32N
# notes: one-arm antibody
# B20: GLS3000 S52A one-arm antibody (H chain CE115HA000) (antibody, human IgG1, kappa, L234A L235A, N297A, name in Kabat numbering)
# heavy: B1 heavy
# chain: B1 chain
# light: B1 light with D32S, S57A
# notes: one-arm antibody
# B21: GLS3000 S27eV one-arm antibody (H chain CE115HA000) (antibody, human IgG1, kappa, L234A L235A, N297A, name in Kabat numbering)
# heavy: B1 heavy
# chain: B1 chain
# light: B1 light with D32V
# notes: one-arm antibody
# B22: GLS3000 V27cI one-arm antibody (H chain CE115HA000) (antibody, human IgG1, kappa, L234A L235A, N297A, name in Kabat numbering)
# heavy: B1 heavy
# chain: B1 chain
# light: B1 light with V30I, D32S
# notes: one-arm antibody
# B23: GLS3000 S27eR one-arm antibody (H chain CE115HA000) (antibody, human IgG1, kappa, L234A L235A, N297A, name in Kabat numbering)
# heavy: B1 heavy
# chain: B1 chain
# light: B1 light with D32R
# notes: one-arm antibody
# B24: GLS3000 V27cE one-arm antibody (H chain CE115HA000) (antibody, human IgG1, kappa, L234A L235A, N297A, name in Kabat numbering)
# heavy: B1 heavy
# chain: B1 chain
# light: B1 light with V30E, D32S
# notes: one-arm antibody
# B25: GLS3000 V51D one-arm antibody (H chain CE115HA000) (antibody, human IgG1, kappa, L234A L235A, N297A, name in Kabat numbering)
# heavy: B1 heavy
# chain: B1 chain
# light: B1 light with D32S, V56D
# notes: one-arm antibody
# B26: GLS3000 V27cL one-arm antibody (H chain CE115HA000) (antibody, human IgG1, kappa, L234A L235A, N297A, name in Kabat numbering)
# heavy: B1 heavy
# chain: B1 chain
# light: B1 light with V30L, D32S
# notes: one-arm antibody
# B27: GLS3000 S27eK one-arm antibody (H chain CE115HA000) (antibody, human IgG1, kappa, L234A L235A, N297A, name in Kabat numbering)
# heavy: B1 heavy
# chain: B1 chain
# light: B1 light with D32K
# notes: one-arm antibody
# B28: GLS3000 S27eH one-arm antibody (H chain CE115HA000) (antibody, human IgG1, kappa, L234A L235A, N297A, name in Kabat numbering)
# heavy: B1 heavy
# chain: B1 chain
# light: B1 light with D32H
# notes: one-arm antibody
# B29: GLS3000 S27eP one-arm antibody (H chain CE115HA000) (antibody, human IgG1, kappa, L234A L235A, N297A, name in Kabat numbering)
# heavy: B1 heavy
# chain: B1 chain
# light: B1 light with D32P
# notes: one-arm antibody
# B30: GLS3000 Y32D one-arm antibody (H chain CE115HA000) (antibody, human IgG1, kappa, L234A L235A, N297A, name in Kabat numbering)
# heavy: B1 heavy
# chain: B1 chain
# light: B1 light with D32S, Y37D
# notes: one-arm antibody
# B31: GLS3000 S56A one-arm antibody (H chain CE115HA000) (antibody, human IgG1, kappa, L234A L235A, N297A, name in Kabat numbering)
# heavy: B1 heavy
# chain: B1 chain
# light: B1 light with D32S, S61A
# notes: one-arm antibody
# B32: GLS3000 S27eY one-arm antibody (H chain CE115HA000) (antibody, human IgG1, kappa, L234A L235A, N297A, name in Kabat numbering)
# heavy: B1 heavy
# chain: B1 chain
# light: B1 light with D32Y
# notes: one-arm antibody
# Target: T1, CD3 epsilon homodimer protein (UniProt P07766 23-126)
# T1 construct: also called CD3 (CD3 epsilon)
# T1 sequence (P07766 23-126): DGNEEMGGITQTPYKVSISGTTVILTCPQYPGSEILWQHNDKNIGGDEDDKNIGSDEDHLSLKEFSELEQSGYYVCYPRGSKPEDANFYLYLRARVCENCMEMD
# Test: SPR, CD3e homodimer on chip;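 further: surface plasmon resonance at 25 degrees C, antibodies flowed as analyte over CD3 epsilon homodimer amine-coupled to a CM4 chip, running buffer HBS-EP+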
row,Binder,ratio of amounts bound (altered form / unaltered GLS3000 antibody)
1,B1,0.69
2,B2,0.97
3,B3,1.17
4,B4,0.32
5,B5,1.1
6,B6,0.51
7,B7,0.77
8,B8,1.04
9,B9,0.63
10,B10,0.3
11,B11,1.55
12,B12,0.23
13,B13,0.77
14,B14,0.24
15,B15,1.07
16,B16,1.32

row,Binder,ratio of amounts bound (altered form / unaltered GLS3000 antibody)
1,B17,1.23
2,B18,0.76
3,B19,1.16
4,B20,0.93
5,B21,1.08
6,B22,0.96
7,B23,1.58
8,B24,0.61
9,B25,0.33
10,B26,0.84
11,B27,1.59
12,B28,1.23
13,B29,1.26
14,B30,0.23
15,B31,1.16
16,B32,1.2
